# According to patent US7205275 (dated 2007):
# Primed or numbered codes have the meaning given here. Where no end group is shown, it is not given here. [ ]: non-standard residue; d: D form. Fc(3) = Fc: non-antigen-binding fragment of an antibody from proteolytic digestion of a whole antibody (vehicle); Fc(4) = non-antigen-binding fragment of an antibody (from proteolytic digestion of a whole antibody); Fc = immunoglobulin Fc domain fused to the peptide (peptibody); Fc(7) = Fc domain, peptide fused N- or C-terminal to it; Fc″ = Fc domain of the peptibody fusion
# T1: human Ang-2 (human, UniProt O15123)
# T1 chain: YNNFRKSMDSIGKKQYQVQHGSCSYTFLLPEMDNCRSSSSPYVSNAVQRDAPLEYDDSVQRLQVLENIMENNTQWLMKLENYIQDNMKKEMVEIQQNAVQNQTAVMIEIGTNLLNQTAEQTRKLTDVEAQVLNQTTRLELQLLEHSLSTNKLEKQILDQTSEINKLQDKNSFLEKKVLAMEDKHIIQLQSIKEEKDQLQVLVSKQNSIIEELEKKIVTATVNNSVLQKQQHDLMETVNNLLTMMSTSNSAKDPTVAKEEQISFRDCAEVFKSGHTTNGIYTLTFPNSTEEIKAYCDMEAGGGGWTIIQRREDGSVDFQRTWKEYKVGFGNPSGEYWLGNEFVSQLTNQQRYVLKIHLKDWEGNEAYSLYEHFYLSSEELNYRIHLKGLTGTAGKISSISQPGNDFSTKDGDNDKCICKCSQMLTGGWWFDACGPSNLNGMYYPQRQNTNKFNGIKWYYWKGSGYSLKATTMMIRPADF
# B1: Con1-2 (C) (peptide)
# chain: M[Fc]GGGGGAQQTWDDPCMHILGPVTWRRCILE
# modifications: not fully specified (bridges); cysteine pairing not given here; also: Fc fusion domain at position 2
# B2: Con1-6 (C) (peptide)
# chain: M[Fc]GGGGGAQGQDLRPCEDMFGCGTKDWYGLE
# modifications: not fully specified (bridges); cysteine pairing not given here; also: Fc fusion domain at position 2
# Target: T1, human Ang-2
# Assay: competition ELISA vs Tie-2
row,IC50 [nM],Binder
1,2.05,M[Fc(7)]GGGGGAQAQDYCEGMEDPFTFGCEMQKLE (not fully specified (bridges); cysteine pairing not given here) [12-9-4 (C)]
2,1.62,MGAQSKFKPLDELEQTLYEQWTLQHALEGGGGG-Fc [L1-9 (N)]
3,0.09,MGAQYKFNPMDELEQTLYEEFLFQHALEGGGGG-{Fc″} [L1-22 (N)]
4,0.07,MGAQQNFKPMDELEDTLYKQFLFQHSLEGGGGG[Fc(3)] [L1-11 (N)]
5,0.09,MGAQEDYMPLDALDAQLYEQFILLHGLEGGGGG-{Fc(3)} [L1-20 (N)]
6,0.16,MGAQTKFNPLDELEQTLYEQWTLQHQLEGGGGG-{Fc″} [L1-3 (N)]
7,> 1000,B1
8,2.68,M[Fc(7)]GGGGGAQLQDYCEGVEDPFTFGCEKQRLE (not fully specified (bridges); cysteine pairing not given here) [12-9-C1 (C)]
9,0.08,MGAQVKFKPLDALEQTLYEHWMFQQALEGGGGG-Fc [L1-4 (N)]
10,0.05,MGAQTKFQPLDELDQTLYEQWTLQQRLEGGGGG-Fc [L1-C2 (N)]
11,1.41,M[Fc(7)]GGGGGAQLQDYCEGVEDPFTFGCENQRLE (not fully specified (bridges); cysteine pairing not given here) [12-9-C2 (C)]
12,1.84,M[Fc(7)]GGGGGAQGFEYCDGMEDPFTFGCDKQTLE (not fully specified (bridges); cysteine pairing not given here) [12-9-1 (C)]
13,0.04,MGAQLNFTPLDELEQTLYEQWTLQQSLEGGGGG[Fc(3)] [L1-2 (N)]
14,0.03,MGAQTNYKPLDELDATLYEHWILQHSLEGGGGG[Fc(7)] [AC6-L1 (N)]
15,0.11,MGAQQKFQPLDELEETLYKQWTLQQRLEGGGGG[Fc(3)] [L1-16 (N)]
16,0.04,MGAQQKYQPLDELDKTLYDQFMLQQGLEGGGGG[Fc(3)] [L1-15 (N)]
17,1.56,M[Fc(7)]GGGGGAQLLDYCEGVQDPFTFGCENLDLE (not fully specified (bridges); cysteine pairing not given here) [12-9-5 (C)]
18,0.81,M[Fc(7)]GGGGGAQLQEWCEGVEDPFTFGCEKQRLE (not fully specified (bridges); cysteine pairing not given here) [12-9-3 (C)]
19,0.08,MGAQVKYKPLDELDEWLYHQFTLHHQLEGGGGG[Fc(3)] [L1-17 (N)]
20,0.56,MGAQQKFKPLDELEQTLYEQWTLQQRLEGGGGG-Fc [L1-C1 (N)]
21,15,M[Fc(7)]GGGGGAQFDYCEGVEDPFTFGCDNHLE (not fully specified (bridges); cysteine pairing not given here) [12-9 (C)]
22,8.42,M[Fc(7)]GGGGGAQKLEYCDGMEDPFTQGCDNQSLE (not fully specified (bridges); cysteine pairing not given here) [12-9-2 (C)]
23,8.6,B2
24,0.06,MGAQTNFQPLDELDQTLYEQWTLQQRLEGGGGG-Fc [L1-C3 (N)]
25,0.95,M[Fc(7)]GGGGGAQHQEYCEGMEDPFTFGCEYQGLE (not fully specified (bridges); cysteine pairing not given here) [12-9-6 (C)]
26,0.05,MGAQQEYEPLDELDETLYNQWMFHQRLEGGGGG[Fc(3)] [L1-13 (N)]
27,0.08,MGAQYKFTPLDDLEQTLYEQWTLQHVLEGGGGG[Fc(3)] [L1-12 (N)]

# Target: T1, human Ang-2
# Assay: competition ELISA vs Tie-2
# Remark: another data set of the same source
row,IC50 [nM],Binder
1,0.18,M[Fc(4)]GGGGGAQSISHEECEWDPWTCEHMQVGLE (not fully specified; cysteine pairing not given here) [Con4-43 (C)]
2,0.16,M[Fc(7)]GGGGGAQNRLQEVCEWDPWTCEHMENVLE (not fully specified (bridges); cysteine pairing not given here) [Con4-31 (C)]
3,0.26,M[Fc(4)]GGGGGAQQHWQEECEWDPWTCDHMPSKLE (not fully specified; cysteine pairing not given here) [Con4-46 (C)]
